Experimental data as given in publication PMC7816212 (Nature, 2020).
No end group written: not given here. *: point of attachment. FITC = O=C1OC2(c3ccc(O)cc3Oc3cc(O)ccc32)c2ccc(NC(=S)*)cc21

Columns and labels:
biotinylated BCL6^5−129 = biotinylated BCL6^5−129 (human, UniProt A5PL18 5-129, biotin); experiment: FRET or BRET
[1] = biological target: BodipyFL-labeled BCL6^5−360 (human, UniProt A5PL18 5-360, BodipyFL label (site not stated)); experiment: FRET or BRET

B1: N-terminal FITC-labeled BCoR peptide (peptide)
peptide: {FITC}-RSEIISTAPSSWVVPGP
Biotinylated BCL6^5−129
  binding result: binds

B2: biotinylated Strep II Avi-tagged SIAH1^SBD (domain or fragment)
chain: VANSVLFPCKYASSGCEITLPHTEKADHEELCEFRPYSCPCPGASCKWQGSLDAVMPHLMHQHKSITTLQGEDIVFLATDINLPGAVDWVMMQSCFGFHFMLVLEKQEKYDGHQQFFAIVQLIGTRKQAENFAYRLELNGHRRRLTWEATPRSIHEGIATAIMNSDCLVFDTSIAQLFAENGNLGINVTISMC
modifications: biotin
[1]
  Kd: 200 nM
